Data: the nanobody polyreactivity screen of Harvey et al. (2022)

assay: yeast display, Sf9 membrane polyspecificity reagent, FACS + sequencing; frameworks hold sequencing errors
In short: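 Nanobodies came from a synthetic yeast display library in Saccharomyces cerevisiae BJ5465, induced with galactose for 36–48 hours and stained for 1 hour at 4 °C with 10% biotinylated, detergent-solubilized Sf9 membrane reagent. Cells were enriched on streptavidin microbeads and then FACS-sorted, with low and high (top ~1%) gates set on anti-HA fluorescence for expression and streptavidin fluorescence for reagent binding. Each polyreactivity label reflects the gate a clone came from. Genes were amplified by colony PCR, sequenced by MiSeq 2 × 250 and filtered by CDR length.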

Sequence	polyreactivity (PSR sort gate)
QVQLVESGGRLVQAGASLRLSCAASGSTFSTNAMGWYRQAPGKEREFVPAISRSGGRTYYADSVKGRFTISRDNAKNTVYLQMNSLKRDDTAVYYCAAGITHEGRDGDYWGQGTQVTVSS	high polyreactivity
QVQLEESGGGLVQAGGSLRLSCAASGRIFSNNVMGWYRQAPGKERELVATISTDGRTNYADSVKGRFTISRDNAKNTVYLQMNSLKPEDTAVYYCAATGVTILLSSKSDYWGQGTQVTVSS	low polyreactivity
QVQLVESGGGLVQAGRSLRLICAASGRISVFYTMGWYRQAPGKERELVAVIRTSGGRTNYADSVKGRFTISRDNAKNTVYLQMNSLKPEDTAVYYCAARVVRYGFKYYYWGQGTQVTVSS	low polyreactivity
QVQLVESGGGLVQAGGSLRLSCAASGIIFDQNVMGWYRQAPGKERELVAAIRQTGGSTYYADSVKGRFTISRDNAKNTVYLQMNSLKPEDTAVYYCNAKPPGWFWGGFSYNRYYYWGQGTQVTVSS	low polyreactivity
QVQLVESGGGLVQAGGSLRLSCAASGRIFGINAMGWYRQAPGKERELVAAINRSGDTTNYADSVKGRFTISRDNAKNTVYLQMNSLKPEDTAVYYCAADGYRQVYYRYYYWGQGTQVTVSS	high polyreactivity
QVQLVESGGGLVQAGGSLRLSCAASGLILSRNVMGWYRQAPGKERELVAAINWSSGSTYYADSVKGRFTISRDNGKNTVSLQMNSLKPEDTAVYYCAATVFYDAEYDYWGQGSQVTVSS	high polyreactivity
QVQLVESRGGLVQAGGSHRLSCAASGSIFGYYAMGWYRQAPGNERELVAAIRSTGSTNYADSVKGRFTISRDNAQNSVYLQMNSLKPVDTAVYYCAAGYITWGSGNWVVTPYDYWGQGTQVTVSS	high polyreactivity
QVQLVESGGGLVQAGGSLRLSCAASGSTFRYNAMGWYRQAPGKVRQLVAAIDKRGDSTYADSVKGRFTISRDNAKNTVYLQMNSLKPEDTAVYYCAADSDSKYNYGFLWDTYEYWGQGTQVTVSS	low polyreactivity
QVQLVESGGGLVQAGGSLRLSCAASGFTFKYYAMGWYRQAPRKERELVAAITSRGGSTYYADSVKGRFTISRDNAKNTVYLQMNSLKPEDTAVYYCAARFRKIGVAFDYWGQGTQVTVSS	high polyreactivity
QVQLVESGGGLVQAGGSLRLSCAASAGTFWNAMGWYRQAPGKERELVATITSGSSTNYADSVKGRFTISRDNAKNTVYLQMNSLKPEDTAVYYCNARTIPWPYIVSYDYWGQGTQVTVSS	high polyreactivity
QVQHVESGGGLVQAGGSLRLSCAASGRIFVPYAKGWYRQPPGKERELVADISLRGGTTYYADSVKGRFTISRDNAKNTVYLQMNSLKPEDTAVYYCAARGYVSVWRPYHWFVAGDYWGQGTQVTVSS	high polyreactivity
QVQLGESGGGLVQAGGSLRLSCAASGSIFTYNPMGWYRQAPGKERELVAAITIDDGSTYYADSVKGRFTISRDNAKNTVYLQMNSLKPEDTAVYYCAADFYGVSYSGGEMDYWGLGTQVTVSS	low polyreactivity
QVQLVESGGGLVQEGGSLRLSCAASGSTFYIYGMGWYRQAPGKERELVARISSGGSTYADSVKGRFTISRDNAKNTVYLQMYSLKPEDTAVYYCAAAAARTYRRYRYEGYFYWGQGTQVTVSS	high polyreactivity
QVQLVESGGGLVQAGGSLRLSCAASGSTFVQNAMGWYRQAPGNERELVAAISRTGGSTYYADSVKGRFTISRDNAKNTVYLQMNSLKPEDTAVYYCAKRPPNYSWPKIIEFGSWGLGTQVTVSS	high polyreactivity
QVQLVESGGGLVQAGGSLRLSCAASGSIFWSYAMGWYRQATGKERELVAAITWSGGNTYADSVKGRFTISRDNAKNTVYLQMNSLKPEDTAVYYCAADPAHGTKWYVYPSHDDYWGQGTQVTVSS	low polyreactivity
QVQLVESAGGLDQAGGSLRLICDASGFISRNAMGWYTQAPGKERELVAAITRGGSTNYADSVKGRFTISRDNAKNTVYLQMNSLKPEDSAVYYCNQQRQGNSRSYYQTYYGMYYWGQGTQVTVSS	high polyreactivity
QVQLVESGGGLVQAGGSLRLSCAASGSTFAYYAMGWYRQAPGKERELVASISWRGGSTYYADSVKGRFTNSRDNAKNTVYLQMNSLKPEDTAVYYCAAGRFYIWSRSQEYDYWGQGTQVTVSS	low polyreactivity
QVHLVESGGGLVQAGGSLRLSCAASGRTFWNYAMGWYRQAPGKEREFVAVIRFSDGSTYYADSVKGRFTISRDNAKNTVYLQMNSLKPDDTAVYYCAAKGPRRWGSGFDYWGQGNQVTVSS	low polyreactivity
QVQLVESGGGLVQAGGSLRLSCAASGSTFGYNAMGWYRQAPGKERELVAAISSDGSTNYADSVKGRFTISRDNSKNTVYLQMNSLKPEDTAVYYCAADDNGAWVRMDYWGHGTQVTVSS	low polyreactivity
QVQLVESGGGLVQAGGSLRLSCAASGPIFAYNAMGWYRQAPGKERELVAAISYSGGSTYYADSVKGRFTISRDNAKNTVYLQMNSLKPEDTAVYYCNAVYRYRTYRYDYWGQGTQVTVSS	high polyreactivity

Sequence	polyreactivity (PSR sort gate)
QVQLVESGGGLVQAGGSLRLSCAASGFTFKHYTMGWYRQAPGKERELVAAISYSGGSTYYADSVKGRFTISRDNAKNTVYLQMNSLKPEDTAVYYCAADAVKASVSYIVPYAAYDYWGQGTQVTVSS	low polyreactivity
QVHLVESGGGLVQAGGCLRLICAASGSIFVPYAMGWYRQAPVKERELVAAISRGGDTNYADSVKGRFTISRDNAKNTVYLQMKSLKPEDTAVYYCAKSGYGNRGFDYWGQGTQVSVSS	low polyreactivity
QVKLVESGGGLVHAGGSLRLSCAASGFIFYYYAMGWYRQAPGKERELVAAITSSGGSTYYADSVKGRFTISRDNAKNTVYLQMNSLKPEDTAVYYCNARYVSASRNRGTSRYDYWGQGTQVTVSS	high polyreactivity
QVQLIESGGGLVQAGGSLRLSCAASGNIFAVYAMGWYRQAPGKERELVASITVSGASTYYADSVKGRFTISRDNAKNTVYLQMNSLKPEDTAVYYCAARIGSNQRKRYYWGQGTQVTVSS	high polyreactivity
QVQLVESGGGLVQAGGSLRLSCAASGITFDRYLMGWYRQAPGKERELDAAISWTGDSTYYADSVKGRFTISRDNAKNTVYLQMNSLKPEDPAVYYCAAEDLWYGYNYWGQGTQVTVSS	high polyreactivity
QVQLVESGGGLVQAGGSLRLSCAASGRIFRRYAMGWYRQAHGKERELVAAITSGGRTYYADSVKGRFTISRDNAKNTVYLQMNSLKPEDTAVYYCAAKWTVGELDYWGQGTQVTVSS	high polyreactivity
QDQLVESGGGLVQAGGSLRLISAASGSTFRKYAMGWYRQAPGKEREFVAASTKRGGSTYYADSVKGRFTISRDNAKNTVYLLLNSLKPEDTAVYYCAAYKQDIGYYWGQGTQVTVSS	high polyreactivity
QVQLVESGGGLVQAGGSLRLTCAASGFIYYYNAMGWYRQAPGKERQLVAAISASGDRTYYADSVKGRFTISRDNAKNTVYLQMNSLKPEDTAVYYCAARSQGARYSSRRRFGDYWGQGTQVTVSS	high polyreactivity
QVQLVESGGGLVQAGGSLRLSCAASGSTFVIYAMGWYRQAPGKERELVAAISGRTGSTYYADSVKGRFTISRDNAKNTVYLQMNSLKPEDTAVYYCAAYKRSGLKYGHWGQGTQVTVSS	high polyreactivity
QVQLVESGGGLVQEGGSLRLSCAASGRTLRYNDMGWYRQAPGKERELVAAISTRGGSTYYADSVKGRFTISRDNAKNTVYLQMYSLKPEDTAVYYCAVTPRIPGHFEDYYWGQGTQVTVSS	low polyreactivity
QVQLVESGGGLVQAGGSLRLSCAASGSTLYHYDMGWYRQAPGKERELVAAITTSGDSTYYADSVKGRFTISRDNAKNTVYLQMNSLKPEDTAVYYCNADVFKTVFYIDRYYYWGQGTQVTVSS	low polyreactivity
QVQLVESGGGLVQAGGSLRLSCAASGSIFVWYAMGWYRQAPGKERELVAAITSSGGSTYYADSVKGRFTISRDYAKNTVYLQLNSLKPEDTAVYYCAKTPSRRGYYWGQGTQVTVSS	low polyreactivity
QVQLVESGGGLVQAGGSLRLSCAGSGSTFGGYAMGWYRQAPGKEWELVAAINSGGSTYYADSVKGRFTISRDNAKNTVYLQMNSLKPEDTAVYYCNADSQVIRDYIFDYWGQGTQVTVSS	low polyreactivity
QVQLVESGGGLVQAGGSLRLSCAASGSIFYLYAMGWYRQAPGKERELVATITASGGSTNYADSVKGRFTISRDNAKNTVYLQMNSLKPEDTAVYYCAAEYYYLVYYYKEIVAYDYWGQGTQVTVSS	high polyreactivity
QVQLVESGGGLVQAGGSLRLSCAASGSTIAFYDMGWYRQAPGKEREMVAAISQSDGDTYYADSVKGRFTISRDNAKNTVYLQMNSLKPEDTAVYYCARPSFTSGYQSYDYWGQGTQVTVSS	low polyreactivity
QVQLVESGGGLVQAGCSLRLSCADSGLTFTFYAMGWYRQAPGKVRELVAAISTSGASTYYADSVKGRFTISRDNANNTVYLQMNSLKPEDTAVYYCAAEYSYSSYLWYDYWGQGTQVTVSS	high polyreactivity
QVQLVESGGGLVQAGGSLRLSCAASGRIFLYNAMGWYRQAPGKEREFVATISYSGGRTNYADSVKGRFTISRDNAKNTVYLQMNSLKPEDTAVYYCAARWPWFYAHAYDYWGQGTQVTVSS	high polyreactivity
QVQLVDSGGGLVQAGGSLRLSCAASGFTFTRYAMGWYRQAPGKERELVADITRGGSTNYADSVKARFTISRDNAKNTVYLQMNSLKPEDTAVYYCNAGAITNYDYCGQGTQVTVSS	high polyreactivity
QVQLVESGGGLVQAGGSLRLSCAASGSIFRRYVMGWYRQAPGKERELVASISSNGTSTYYADSVKGRFTISRDNSKNTVYLQMNSLKPEDTAVYYCNVDIFDPRTYDYWGQGTQVTVSS	low polyreactivity
QVQLVESGGGLVQAGGSLRLSCAASGRIFYGYAMGWYRQAPGKERELVAAISSSGGSTYYADSVKGRFTISRDNAKNTVYLQMNSLKPEDTAVYYCNAQRYRPGYWYDYWGQGTQVTVSS	high polyreactivity
